These results are taken from the supplement of paper PMC5998384.

In series [1] the test system is HeLa Kyoto. Put plainly: melting temperature (median over replicates), in situ; higher = more thermally stable.
Series [2] concerns HeLa Kyoto. The series can be described thus: solubility change mitosis vs G1/S (difference of NP-40 vs SDS log2 ratios) (log2 ratio difference); higher = more soluble in mitosis.
In series [3] the test system is HeLa Kyoto. The series can be described thus: thermal stability score vs G1/S (z-score of summed log2 fold changes over temperatures); higher = more thermally stable than in G1/S.
Series [4] concerns HeLa Kyoto. Put plainly: solubility in G1/S (NP-40 vs SDS abundance) (log2 ratio); higher = more soluble. As to conditions: cell cycle stage: G1/S.
Where [5] appears, read: cell cycle stage: early G1 (4.5 h after nocodazole release).
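Throughout, for melting temperature (median over replicates), in situ: HeLa Kyoto cells synchronized by double thymidine or nocodazole block, proteins quantified by TMT10plex mass spectrometry, three independent biological replicates.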
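Throughout, for solubility change mitosis vs G1/S (difference of NP-40 vs SDS log2 ratios): synchronized HeLa Kyoto cells (double thymidine block for G1/S, nocodazole release for mitosis), protein amounts in NP-40 versus SDS lysates quantified by mass spectrometry, three biological replicates.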
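Throughout, for solubility in G1/S (NP-40 vs SDS abundance): HeLa Kyoto cells arrested at G1/S by double thymidine block, proteins quantified by TMT10plex mass spectrometry in mild NP-40 versus SDS extracts, three biological replicates.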
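Throughout, for thermal stability score vs G1/S (z-score of summed log2 fold changes over temperatures): synchronized HeLa Kyoto cells, proteins quantified by TMT10plex mass spectrometry, three biological replicates, mitosis taken 0.5 h after nocodazole release, G1/S directly after double thymidine block.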

In the case of “MTDSKYFTTTKKGEIFELKAELNSDKKEKKKEAVKKVIASMTVGKDVSALFPDVVNCMQTDNLELKKLVYLYLMNYAKSQPDMAIMAVNTFVKDCEDPNPLIRALAVRTMGCIRVDKITEYLCEPLRKCLKDEDPYVRKTAAVCVAKLHDINAQLVEDQGFLDTLKDLISDSNPMVVANAVAALSEIAESHPSSNLLDLNPQSINKLLTALNECTEWGQIFILDCLANYMPKDDREAQSICERVTPRLSHANSAVVLSAVKVLMKFMEMLSKDLDYYGTLLKKLAPPLVTLLSAEPELQYVALRNINLIVQKRPEILKHEMKVFFVKYNDPIYVKLEKLDIMIRLASQANIAQVLAELKEYATEVDVDFVRKAVRAIGRCAIKVEQSAERCVSTLLDLIQTKVNYVVQEAIVVIKDIFRKYPNKYESVIATLCENLDSLDEPEARAAMIWIVGEYAERIDNADELLESFLEGFHDESTQVQLQLLTAIVKLFLKKPTETQELVQQVLSLATQDSDNPDLRDRGYIYWRLLSTDPVAAKEVVLAEKPLISEETDLIEPTLLDELICYIGTLASVYHKPPSAFVEGGRGVVHKSLPPRTASSESAESPETAPTGAPPGEQPDVIPAQGDLLGDLLNLDLGPPVSGPPLATSSVQMGAVDLLGGGLDSLMGDEPEGIGGTNFVAPPTAAVPANLGAPIGSGLSDLFDLTSGVGTLSGSYVAPKAVWLPAMKAKGLEISGTFTRQVGSISMDLQLTNKALQVMTDFAIQFNRNSFGLAPAAPLQVHAPLSPNQTVEISLPLSTVGSVMKMEPLNNLQVAVKNNIDVFYFSTLYPLHILFVEDGKMDRQMFLATWKDIPNENEAQFQIRDCPLNAEAASSKLQSSNIFTVAKRNVEGQDMLYQSLKLTNGIWVLAELRIQPGNPSCTDLELSLKCRAPEVSQHVYQAYETILKN [AP1B1]”, the melting temperature in the series with HeLa Kyoto [1] (cell cycle stage: G1/S) came to 51.7 °C; in the series with HeLa Kyoto [1] (cell cycle stage: mitosis), 51.1 °C. The “solubility change mitosis (log2)” value in the series with HeLa Kyoto [2] was -0.225. Also, the thermal stability score in the series with HeLa Kyoto [3] (setting [5]) was -0.616; with HeLa Kyoto [3] (cell cycle stage: mitosis), 0.595. In addition, the “solubility in G1/S (log2)” value in the series with HeLa Kyoto [4] is 0.297.

“MTDYGEEQRNELEALESIYPDSFTVLSENPPSFTITVTSEAGENDETVQTTLKFTYSEKYPDEAPLYEIFSQENLEDNDVSDILKLLALQAEENLGMVMIFTLVTAVQEKLNEIVDQIKTRREEEKKQKEKEAEEAEKQLFHGTPVTIENFLNWKAKFDAELLEIKKKRMKEEEQAGKNKLSGKQLFETDHNLDTSDIQFLEDAGNNVEVDESLFQEMDDLELEDDEDDPDYNPADPESDSAD [RWDD1]”: the melting temperature was found to be 52.7 °C in the series with HeLa Kyoto [1] (cell cycle stage: G1/S) and 54 °C with HeLa Kyoto [1] (cell cycle stage: mitosis). Further, the “solubility change mitosis (log2)” value in the series on HeLa Kyoto [2] was 0.0192. Further, the thermal stability score is 0.855 in the series with HeLa Kyoto [3] (setting [5]) and 0.947 in the series with HeLa Kyoto [3] (cell cycle stage: mitosis). Also, in the series with HeLa Kyoto [4], the “solubility in G1/S (log2)” value was found to be 0.348.

In the case of “MTELETAMGMIIDVFSRYSGSEGSTQTLTKGELKVLMEKELPGFLQSGKDKDAVDKLLKDLDANGDAQVDFSEFIVFVAAITSACHKYFEKAGLK [S100P]”, the values for the melting temperature in the series on HeLa Kyoto [1] (cell cycle stage: G1/S) and in the series on HeLa Kyoto [1] (cell cycle stage: mitosis) were 54.1 °C and 51 °C, respectively. Besides, in the series with HeLa Kyoto [2], the “solubility change mitosis (log2)” value came out at 0.32. Also, the thermal stability score in the series with HeLa Kyoto [3] (setting [5]) is -0.94; in the series on HeLa Kyoto [3] (cell cycle stage: mitosis), -5.53. The “solubility in G1/S (log2)” value in the series on HeLa Kyoto [4] is -0.525.

Turning to “MTELRQRVAHEPVAPPEDKESESEAKVDGETASDSESRAESAPLPVSADDTPEVLNRALSNLSSRWKNWWVRGILTLAMIAFFFIIIYLGPMVLMIIVMCVQIKCFHEIITIGYNVYHSYDLPWFRTLSWYFLLCVNYFFYGETVTDYFFTLVQREEPLRILSKYHRFISFTLYLIGFCMFVLSLVKKHYRLQFYMFGWTHVTLLIVVTQSHLVIHNLFEGMIWFIVPISCVICNDIMAYMFGFFFGRTPLIKLSPKKTWEGFIGGFFATVVFGLLLSYVMSGYRCFVCPVEYNNDTNSFTVDCEPSDLFRLQEYNIPGVIQSVIGWKTVRMYPFQIHSIALSTFASLIGPFGGFFASGFKRAFKIKDFANTIPGHGGIMDRFDCQYLMATFVNVYIASFIRGPNPSKLIQQFLTLRPDQQLHIFNTLRSHLIDKGMLTSTTEDE [CDS2]”, the melting temperature in the series on HeLa Kyoto [1] (cell cycle stage: G1/S) turned out to be 57.3 °C; in the series on HeLa Kyoto [1] (cell cycle stage: mitosis), 56 °C. Moreover, the “solubility change mitosis (log2)” value with HeLa Kyoto [2] was -0.168. The thermal stability score in the series with HeLa Kyoto [3] (setting [5]) was -3.65; with HeLa Kyoto [3] (cell cycle stage: mitosis) it was -6.01. In the series with HeLa Kyoto [4], the “solubility in G1/S (log2)” value is -0.102.

As to “MTGRAMDPLPAAAVGAAAEAEADEEADPPASDLPTPQAIEPQAIVQQVPAPSRMQMPQGNPLLLSHTLQELLARDTVQVELIPEKKGLFLKHVEYEVSSQRFKSSVYRRYNDFVVFQEMLLHKFPYRMVPALPPKRMLGADREFIEARRRALKRFVNLVARHPLFSEDVVLKLFLSFSGSDVQNKLKESAQCVGDEFLNCKLATRAKDFLPADIQAQFAISRELIRNIYNSFHKLRDRAERIASRAIDNAADLLIFGKELSAIGSDTTPLPSWAALNSSTWGSLKQALKGLSVEFALLADKAAQQGKQEENDVVEKLNLFLDLLQSYKDLCERHEKGVLHKHQRALHKYSLMKRQMMSATAQNREPESVEQLESRIVEQENAIQTMELRNYFSLYCLHQETQLIHVYLPLTSHILRAFVNSQIQGHKEMSKVWNDLRPKLSCLFAGPHSTLTPPCSPPEDGLCPH [SNX8]”, the melting temperature in the series on HeLa Kyoto [1] (cell cycle stage: G1/S) turned out to be 54 °C; with HeLa Kyoto [1] (cell cycle stage: mitosis), 55.7 °C. In addition, in the series with HeLa Kyoto [2], the “solubility change mitosis (log2)” value was -0.153. Also, the thermal stability score was -2.07 with HeLa Kyoto [3] (setting [5]) and -2.85 in the series on HeLa Kyoto [3] (cell cycle stage: mitosis). Also, the “solubility in G1/S (log2)” value with HeLa Kyoto [4] is 0.249.

In the case of “MTKKRKRQHDFQKVKLKVGKKKPKLQNATPTNFKTKTIHLPEQLKEDGTLPTNNRKLNIKDLLSQMHHYNAGVKQSALLGLKDLLSQYPFIIDAHLSNILSEVTAVFTDKDANVRLAAVQLLQFLAPKIRAEQISPFFPLVSAHLSSAMTHITEGIQEDSLKVLDILLEQYPALITGRSSILLKNFVELISHQQLSKGLINRDRSQSWILSVNPNRRLTSQQWRLKVLVRLSKFLQALADGSSRLRESEGLQEQKENPHATSNSIFINWKEHANDQQHIQVYENGGSQPNVSSQFRLRYLVGGLSGVDEGLSSTENLKGFIEIIIPLLIECWVEAVPPQLATPVGNGIEREPLQVMQQVLNIISLLWKLSKQQDETHKLESWLRKNYLIDFKHHFMSRFPYVLKEITKHKRKEPNKSIKHCTVLSNNIDHLLLNLTLSDIMVSLANASTLQKDCSWIEMIRKFVTETLEDGSRLNSKQLNRLLGVSWRLMQIQPNREDTETLIKAVYTLYQQRGLILPVRTLLLKFFSKIYQTEELRSCRFRYRSKVLSRWLAGLPLQLAHLGSRNPELSTQLIDIIHTAAARANKELLKSLQATALRIYDPQEGAVVVLPADSQQRLVQLVYFLPSLPADLLSRLSRCCIMGRLSSSLAAMLIGILHMRSSFSGWKYSAKDWLMSDVDYFSFLFSTLTGFSKEELTWLQSLRGVPHVIQTQLSPVLLYLTDLDQFLHHWDVTEAVFHSLLVIPARSQNFDILQSAISKHLVGLTVIPDSTAGCVFGVICKLLDHTCVVSETLLPFLASCCYSLLYFLLTIEKGEAEHLRKRDKLWGVCVSILALLPRVLRLMLQSLRVNRVGPEELPVVGQLLRLLLQHAPLRTHMLTNAILVQQIIKNITTLKSGSVQEQWLTDLHYCFNVYITGHPQGPSALATVY [TEX10]”, the results for the melting temperature with HeLa Kyoto [1] (cell cycle stage: G1/S) and in the series with HeLa Kyoto [1] (cell cycle stage: mitosis) were 54.3 °C and 52 °C, respectively. Also, the “solubility change mitosis (log2)” value in the series on HeLa Kyoto [2] stood at 0.921. Further, the thermal stability score in the series with HeLa Kyoto [3] (setting [5]) is -1.74; in the series on HeLa Kyoto [3] (cell cycle stage: mitosis), -4.37. In addition, the “solubility in G1/S (log2)” value with HeLa Kyoto [4] was -1.92.
